# Data as given in paper PMC9482650, “Quantitative fragmentomics allow affinity mapping of interactomes” (Nature Communications, 2022).
# T1: RHPN1, Q8TCX5
# T1 sequence (Q8TCX5 508-602, limits assumed, looked up): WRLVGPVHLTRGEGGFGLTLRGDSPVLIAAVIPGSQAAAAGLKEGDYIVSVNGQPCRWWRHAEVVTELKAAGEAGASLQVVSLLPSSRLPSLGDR
# T2: SIPA1L2, Q9P2F8
# T2 sequence (Q9P2F8 945-1036, limits assumed, looked up): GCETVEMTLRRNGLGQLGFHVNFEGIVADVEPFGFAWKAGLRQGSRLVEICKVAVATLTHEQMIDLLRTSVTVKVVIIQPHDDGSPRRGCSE
# T3: PARD3B_1, Q8TEW8
# T3 sequence (Q8TEW8 196-299, limits assumed, looked up): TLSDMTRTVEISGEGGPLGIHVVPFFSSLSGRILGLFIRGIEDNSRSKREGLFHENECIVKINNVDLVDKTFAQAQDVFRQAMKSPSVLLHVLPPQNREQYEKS
# T4: SHANK1, Q9Y566
# T4 sequence (Q9Y566 658-767, limits assumed, looked up): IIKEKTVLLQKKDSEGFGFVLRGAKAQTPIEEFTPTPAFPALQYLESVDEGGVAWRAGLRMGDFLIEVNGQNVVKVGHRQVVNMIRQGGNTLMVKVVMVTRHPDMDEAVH
# T5: LIN7C, Q9NUP9
# T5 sequence (Q9NUP9 88-185, limits assumed, looked up): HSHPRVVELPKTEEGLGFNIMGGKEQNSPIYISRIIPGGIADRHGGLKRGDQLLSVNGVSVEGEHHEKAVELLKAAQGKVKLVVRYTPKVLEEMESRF
# T6: MPDZ_12, O75970
# T6 sequence (O75970 1857-1958, limits assumed, looked up): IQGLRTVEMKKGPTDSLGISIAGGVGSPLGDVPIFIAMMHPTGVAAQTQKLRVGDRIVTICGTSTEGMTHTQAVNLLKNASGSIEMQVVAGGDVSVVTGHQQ
# T7: CARD11, Q9BXL7
# T7 sequence (Q9BXL7 662-765, limits assumed, looked up): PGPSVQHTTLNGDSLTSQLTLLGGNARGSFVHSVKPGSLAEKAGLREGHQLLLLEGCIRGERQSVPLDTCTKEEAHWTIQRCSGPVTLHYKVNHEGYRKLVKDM
# T8: GRIP1_4, Q9Y3R0
# T8 sequence (Q9Y3R0 467-571, limits assumed, looked up): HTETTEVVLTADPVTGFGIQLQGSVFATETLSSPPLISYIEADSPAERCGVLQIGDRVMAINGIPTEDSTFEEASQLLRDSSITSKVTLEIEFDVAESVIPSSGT
# B1: RCN2, Q14257 (peptide)
# chain: HDDYFYHDEL
# B2: SCN4B, Q8IWT1 (peptide)
# chain: KAEEKPPSKV
# B3: EGLN1, Q9GZT9 (peptide)
# chain: PSDSVGKDVF
# Molecular target: NHERF2_2, Q15599
# Test: holdup assay
# Parameters: key: below the threshold = too weak to quantify, mostly under pKd 3.1 to 4
# Settings: plain residues with an end cap or a label only (N-terminal biotin on a linker: ado-ado)
# NHERF2_2, Q15599, sequence (Q15599 142-238): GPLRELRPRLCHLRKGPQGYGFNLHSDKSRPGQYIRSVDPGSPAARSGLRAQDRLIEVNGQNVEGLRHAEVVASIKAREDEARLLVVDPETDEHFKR
row,Binder,pKd
1,B1,4.11
2,B2,below the threshold
3,B3,below the threshold

# Molecular target: Inadl_6, Q8NI35
# Test: holdup assay
# Parameters: key: below the threshold = too weak to quantify, mostly under pKd 3.1 to 4
# Settings: plain residues with an end cap or a label only (N-terminal biotin on a linker: ado-ado)
# Inadl_6, Q8NI35, sequence (Q8NI35 1058-1167): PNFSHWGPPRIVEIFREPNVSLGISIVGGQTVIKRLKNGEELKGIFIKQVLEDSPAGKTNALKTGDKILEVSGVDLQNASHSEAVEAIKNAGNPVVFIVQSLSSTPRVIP
row,Binder,pKd
1,B1,below the threshold
2,B2,below the threshold
3,B3,below the threshold

# Molecular target: MAGI2_2, Q86UL8
# Test: holdup assay
# Parameters: key: below the threshold = too weak to quantify, mostly under pKd 3.1 to 4
# Settings: plain residues with an end cap or a label only (N-terminal biotin on a linker: ado-ado)
# MAGI2_2, Q86UL8, sequence (Q86UL8 410-522): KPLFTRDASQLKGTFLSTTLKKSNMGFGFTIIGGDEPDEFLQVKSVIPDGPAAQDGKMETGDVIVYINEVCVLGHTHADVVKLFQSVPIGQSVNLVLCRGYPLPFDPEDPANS
row,Binder,pKd
1,B1,below the threshold
2,B2,below the threshold
3,B3,below the threshold

# Molecular target: MAGI2_6, Q86UL8
# Test: holdup assay
# Parameters: key: below the threshold = too weak to quantify, mostly under pKd 3.1 to 4
# Settings: plain residues with an end cap or a label only (N-terminal biotin on a linker: ado-ado)
# MAGI2_6, Q86UL8, sequence (Q86UL8 1141-1229): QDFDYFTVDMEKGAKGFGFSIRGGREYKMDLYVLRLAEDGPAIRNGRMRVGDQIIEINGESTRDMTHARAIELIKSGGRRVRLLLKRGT
row,Binder,pKd
1,B1,3.9
2,B2,below the threshold
3,B3,below the threshold

# Molecular target: GRIP2_4, Q9C0E4
# Test: holdup assay
# Parameters: key: below the threshold = too weak to quantify, mostly under pKd 3.1 to 4
# Settings: plain residues with an end cap or a label only (N-terminal biotin on a linker: ado-ado)
# GRIP2_4, Q9C0E4, sequence (Q9C0E4 446-548): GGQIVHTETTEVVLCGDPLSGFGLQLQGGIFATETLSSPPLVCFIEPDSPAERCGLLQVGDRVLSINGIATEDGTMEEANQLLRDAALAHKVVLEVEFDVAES
row,Binder,pKd
1,B1,below the threshold
2,B2,below the threshold
3,B3,below the threshold

# Molecular target: T1, RHPN1, Q8TCX5
# Test: holdup assay
# Parameters: key: below the threshold = too weak to quantify, mostly under pKd 3.1 to 4
# Settings: plain residues with an end cap or a label only (N-terminal biotin on a linker: ado-ado)
row,Binder,pKd
1,B1,below the threshold
2,B2,below the threshold
3,B3,below the threshold

# Molecular target: Inadl_1, Q8NI35
# Test: holdup assay
# Parameters: key: below the threshold = too weak to quantify, mostly under pKd 3.1 to 4
# Settings: plain residues with an end cap or a label only (N-terminal biotin on a linker: ado-ado)
# Inadl_1, Q8NI35, sequence (Q8NI35 113-229): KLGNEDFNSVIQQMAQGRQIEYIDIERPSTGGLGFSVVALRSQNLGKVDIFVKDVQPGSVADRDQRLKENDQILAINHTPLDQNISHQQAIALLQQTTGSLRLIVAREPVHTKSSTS
row,Binder,pKd
1,B1,below the threshold
2,B2,below the threshold
3,B3,below the threshold

# Molecular target: FRMPD2_2, Q68DX3
# Test: holdup assay
# Parameters: key: below the threshold = too weak to quantify, mostly under pKd 3.1 to 4
# Settings: plain residues with an end cap or a label only (N-terminal biotin on a linker: ado-ado)
# FRMPD2_2, Q68DX3, sequence (Q68DX3 944-1038): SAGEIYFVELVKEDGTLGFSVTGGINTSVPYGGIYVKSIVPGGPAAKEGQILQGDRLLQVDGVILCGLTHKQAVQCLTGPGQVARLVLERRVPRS
row,Binder,pKd
1,B1,below the threshold
2,B2,below the threshold
3,B3,below the threshold

# Molecular target: LNX1_3, Q8TBB1
# Test: holdup assay
# Parameters: key: below the threshold = too weak to quantify, mostly under pKd 3.1 to 4
# Settings: plain residues with an end cap or a label only (N-terminal biotin on a linker: ado-ado)
# LNX1_3, Q8TBB1, sequence (Q8TBB1 500-596): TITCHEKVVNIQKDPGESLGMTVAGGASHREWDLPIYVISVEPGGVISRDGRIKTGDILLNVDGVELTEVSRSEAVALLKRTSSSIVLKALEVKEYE
row,Binder,pKd
1,B1,below the threshold
2,B2,below the threshold
3,B3,below the threshold

# Molecular target: T2, SIPA1L2, Q9P2F8
# Test: holdup assay
# Parameters: key: below the threshold = too weak to quantify, mostly under pKd 3.1 to 4
# Settings: plain residues with an end cap or a label only (N-terminal biotin on a linker: ado-ado)
row,Binder,pKd
1,B1,below the threshold
2,B2,below the threshold
3,B3,below the threshold

# Molecular target: NHERF4_1, Q86UT5-2
# Test: holdup assay
# Parameters: key: below the threshold = too weak to quantify, mostly under pKd 3.1 to 4
# Settings: plain residues with an end cap or a label only (N-terminal biotin on a linker: ado-ado)
# NHERF4_1, Q86UT5-2, sequence (Q86UT5 other isoform, or with tags, fused parts or gaps): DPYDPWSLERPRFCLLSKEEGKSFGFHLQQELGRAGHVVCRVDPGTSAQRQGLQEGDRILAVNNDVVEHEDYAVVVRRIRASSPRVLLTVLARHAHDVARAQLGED
row,Binder,pKd
1,B1,4.1
2,B2,below the threshold
3,B3,below the threshold

# Molecular target: SNX27, Q96L92
# Test: holdup assay
# Parameters: key: below the threshold = too weak to quantify, mostly under pKd 3.1 to 4
# Settings: plain residues with an end cap or a label only (N-terminal biotin on a linker: ado-ado)
row,Binder,pKd
1,B1,3.77
2,B2,below the threshold
3,B3,below the threshold

# Molecular target: DLG4_1, P78352
# Test: holdup assay
# Parameters: key: below the threshold = too weak to quantify, mostly under pKd 3.1 to 4
# Settings: plain residues with an end cap or a label only (N-terminal biotin on a linker: ado-ado)
# DLG4_1, P78352, sequence (P78352 62-152): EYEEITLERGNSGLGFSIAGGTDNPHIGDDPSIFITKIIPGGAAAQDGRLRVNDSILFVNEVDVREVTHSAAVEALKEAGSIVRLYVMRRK
row,Binder,pKd
1,B1,3.54
2,B2,below the threshold
3,B3,below the threshold

# Molecular target: DLG1_3, Q12959
# Test: holdup assay
# Parameters: key: below the threshold = too weak to quantify, mostly under pKd 3.1 to 4
# Settings: plain residues with an end cap or a label only (N-terminal biotin on a linker: ado-ado)
# DLG1_3, Q12959, sequence (Q12959 457-571): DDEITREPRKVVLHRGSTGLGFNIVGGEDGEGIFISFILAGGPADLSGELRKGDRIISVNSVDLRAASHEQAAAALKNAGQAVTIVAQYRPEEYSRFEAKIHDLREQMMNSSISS
row,Binder,pKd
1,B1,below the threshold
2,B2,below the threshold
3,B3,below the threshold

# Molecular target: T3, PARD3B_1, Q8TEW8
# Test: holdup assay
# Parameters: key: below the threshold = too weak to quantify, mostly under pKd 3.1 to 4
# Settings: plain residues with an end cap or a label only (N-terminal biotin on a linker: ado-ado)
row,Binder,pKd
1,B1,3.7
2,B2,below the threshold
3,B3,3.5

# Molecular target: T4, SHANK1, Q9Y566
# Test: holdup assay
# Parameters: key: below the threshold = too weak to quantify, mostly under pKd 3.1 to 4
# Settings: plain residues with an end cap or a label only (N-terminal biotin on a linker: ado-ado)
row,Binder,pKd
1,B1,below the threshold
2,B2,below the threshold
3,B3,below the threshold

# Molecular target: T5, LIN7C, Q9NUP9
# Test: holdup assay
# Parameters: key: below the threshold = too weak to quantify, mostly under pKd 3.1 to 4
# Settings: plain residues with an end cap or a label only (N-terminal biotin on a linker: ado-ado)
row,Binder,pKd
1,B1,below the threshold
2,B2,below the threshold
3,B3,below the threshold

# Molecular target: LDB3, O75112
# Test: holdup assay
# Parameters: key: below the threshold = too weak to quantify, mostly under pKd 3.1 to 4
# Settings: plain residues with an end cap or a label only (N-terminal biotin on a linker: ado-ado)
# LDB3, O75112, sequence (O75112 1-94): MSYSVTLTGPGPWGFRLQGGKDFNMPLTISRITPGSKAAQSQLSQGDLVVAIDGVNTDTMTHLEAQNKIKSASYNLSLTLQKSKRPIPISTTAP
row,Binder,pKd
1,B1,4.09
2,B2,below the threshold
3,B3,below the threshold

# Molecular target: GRID2IP_2, A4D2P6
# Test: holdup assay
# Parameters: key: below the threshold = too weak to quantify, mostly under pKd 3.1 to 4
# Settings: plain residues with an end cap or a label only (N-terminal biotin on a linker: ado-ado)
# GRID2IP_2, A4D2P6, sequence (A4D2P6 272-370): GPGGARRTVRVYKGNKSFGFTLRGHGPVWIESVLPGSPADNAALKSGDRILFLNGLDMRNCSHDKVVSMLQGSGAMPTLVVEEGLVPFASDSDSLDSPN
row,Binder,pKd
1,B1,below the threshold
2,B2,below the threshold
3,B3,below the threshold

# Molecular target: Inadl_2, Q8NI35
# Test: holdup assay
# Parameters: key: below the threshold = too weak to quantify, mostly under pKd 3.1 to 4
# Settings: plain residues with an end cap or a label only (N-terminal biotin on a linker: ado-ado)
# Inadl_2, Q8NI35, sequence (Q8NI35 238-335): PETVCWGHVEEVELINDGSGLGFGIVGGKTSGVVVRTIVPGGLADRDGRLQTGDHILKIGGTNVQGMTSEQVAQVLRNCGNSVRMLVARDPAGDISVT
row,Binder,pKd
1,B1,below the threshold
2,B2,below the threshold
3,B3,below the threshold

# Molecular target: NHERF4_4, Q86UT5
# Test: holdup assay
# Parameters: key: below the threshold = too weak to quantify, mostly under pKd 3.1 to 4
# Settings: plain residues with an end cap or a label only (N-terminal biotin on a linker: ado-ado)
# NHERF4_4, Q86UT5, sequence (Q86UT5 464-550): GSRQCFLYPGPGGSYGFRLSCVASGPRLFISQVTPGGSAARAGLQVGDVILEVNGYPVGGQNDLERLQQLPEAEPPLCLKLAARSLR
row,Binder,pKd
1,B1,below the threshold
2,B2,below the threshold
3,B3,below the threshold

# Molecular target: T6, MPDZ_12, O75970
# Test: holdup assay
# Parameters: key: below the threshold = too weak to quantify, mostly under pKd 3.1 to 4
# Settings: plain residues with an end cap or a label only (N-terminal biotin on a linker: ado-ado)
row,Binder,pKd
1,B1,below the threshold
2,B2,3.49
3,B3,below the threshold

# Molecular target: T7, CARD11, Q9BXL7
# Test: holdup assay
# Parameters: key: below the threshold = too weak to quantify, mostly under pKd 3.1 to 4
# Settings: plain residues with an end cap or a label only (N-terminal biotin on a linker: ado-ado)
row,Binder,pKd
1,B1,below the threshold
2,B2,below the threshold
3,B3,below the threshold

# Molecular target: HTRA2, O43464
# Test: holdup assay
# Parameters: key: below the threshold = too weak to quantify, mostly under pKd 3.1 to 4
# Settings: plain residues with an end cap or a label only (N-terminal biotin on a linker: ado-ado)
# HTRA2, O43464, sequence (O43464 355-458): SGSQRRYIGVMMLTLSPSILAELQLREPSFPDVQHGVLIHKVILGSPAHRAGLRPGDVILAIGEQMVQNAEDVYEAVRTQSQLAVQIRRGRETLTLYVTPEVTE
row,Binder,pKd
1,B1,below the threshold
2,B2,below the threshold
3,B3,below the threshold

# Molecular target: GORASP1, Q9BQQ3
# Test: holdup assay
# Parameters: key: below the threshold = too weak to quantify, mostly under pKd 3.1 to 4
# Settings: plain residues with an end cap or a label only (N-terminal biotin on a linker: ado-ado)
# GORASP1, Q9BQQ3, sequence (Q9BQQ3 1-208): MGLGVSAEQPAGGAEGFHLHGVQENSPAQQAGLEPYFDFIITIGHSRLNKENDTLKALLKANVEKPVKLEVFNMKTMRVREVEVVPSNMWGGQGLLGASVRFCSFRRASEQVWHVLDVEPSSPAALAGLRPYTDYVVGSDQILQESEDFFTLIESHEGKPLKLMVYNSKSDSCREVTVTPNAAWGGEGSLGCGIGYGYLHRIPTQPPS
row,Binder,pKd
1,B1,below the threshold
2,B2,below the threshold
3,B3,below the threshold

# Molecular target: PTPN3, P26045
# Test: holdup assay
# Parameters: key: below the threshold = too weak to quantify, mostly under pKd 3.1 to 4
# Settings: plain residues with an end cap or a label only (N-terminal biotin on a linker: ado-ado)
# PTPN3, P26045, sequence (P26045 505-587): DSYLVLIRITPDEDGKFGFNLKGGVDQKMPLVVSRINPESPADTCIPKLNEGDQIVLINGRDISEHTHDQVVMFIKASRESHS
row,Binder,pKd
1,B1,below the threshold
2,B2,below the threshold
3,B3,below the threshold

# Molecular target: T8, GRIP1_4, Q9Y3R0
# Test: holdup assay
# Parameters: key: below the threshold = too weak to quantify, mostly under pKd 3.1 to 4
# Settings: plain residues with an end cap or a label only (N-terminal biotin on a linker: ado-ado)
row,Binder,pKd
1,B1,below the threshold
2,B2,below the threshold
3,B3,below the threshold

# Molecular target: SCRIB_3, Q14160
# Test: holdup assay
# Parameters: key: below the threshold = too weak to quantify, mostly under pKd 3.1 to 4
# Settings: plain residues with an end cap or a label only (N-terminal biotin on a linker: ado-ado)
# SCRIB_3, Q14160, sequence (Q14160 999-1103): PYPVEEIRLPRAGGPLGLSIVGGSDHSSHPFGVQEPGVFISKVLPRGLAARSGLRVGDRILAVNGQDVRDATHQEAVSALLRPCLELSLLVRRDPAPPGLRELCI
row,Binder,pKd
1,B1,3.81
2,B2,below the threshold
3,B3,below the threshold

# Molecular target: FRMPD4, Q14CM0
# Test: holdup assay
# Parameters: key: below the threshold = too weak to quantify, mostly under pKd 3.1 to 4
# Settings: plain residues with an end cap or a label only (N-terminal biotin on a linker: ado-ado)
# FRMPD4, Q14CM0, sequence (Q14CM0 67-160): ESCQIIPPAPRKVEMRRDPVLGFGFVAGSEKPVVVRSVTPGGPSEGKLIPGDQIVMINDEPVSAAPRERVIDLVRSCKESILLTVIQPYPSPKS
row,Binder,pKd
1,B1,3.94
2,B2,below the threshold
3,B3,below the threshold
